From the supplement of paper PMC11246515
± gives the standard deviation of the averaged measurements.

Experiment: total protein half-life in vivo (active degradation + dilution); higher = more stable protein
[1] = E. coli NCM3722 delta-clpP delta-lon delta-hslV, growth: N-lim chemostat, doubling time 6 h
[2] = E. coli NCM3722 delta-hslV, growth: N-lim chemostat, doubling time 6 h
[3] = E. coli NCM3722 delta-lon, growth: N-lim chemostat, doubling time 6 h
[4] = E. coli NCM3722 delta-smpB, growth: N-lim chemostat, doubling time 6 h
[5] = wild type E. coli NCM3722, growth: C-lim chemostat, doubling time 3 h
[6] = wild type E. coli NCM3722, growth: C-lim chemostat, doubling time 6 h
[7] = wild type E. coli NCM3722, growth: C-lim chemostat, doubling time 12 h
[8] = wild type E. coli NCM3722, growth: N-lim chemostat, doubling time 6 h
[9] = wild type E. coli NCM3722, growth: N-lim chemostat, doubling time 12 h
[10] = wild type E. coli NCM3722, growth: P-lim chemostat, doubling time 6 h
[11] = wild type E. coli NCM3722, growth: P-lim chemostat, doubling time 12 h
[12] = E. coli NCM3722 delta-clpP, growth: N-lim chemostat, doubling time 6 h

## MIDLRSDTVTRPSRAMLEAMMAAPVGDDVYGDDPTVNALQDYAAELSGKEAAIFLPTGTQANLVALLSHCERGEEYIVGQAAHNYLFEAGGAAVLGSIQPQPIDAAADGTLPLDKVAMKIKPDDIHFARTKLLSLENTHNGKVLPREYLKEAWEFTRERNLALHVDGARIFNAVVAYGCELKEITQYCDSFTICLSKGLGTPVGSLLVGNRDYIKRAIRWRKMTGGGMRQSGILAAAGIYALKNNVARLQEDHDNAAWMAEQLREAGADVMRQDTNMLFVRVGEENAAALGEYMKARNVLINASPIVRLVTHLDVSREQLAEVAAHWRAFLAR
[1]
  total protein half-life in vivo: 5.25 ± 0.99 h
[2]
  total protein half-life in vivo: 4.88 ± 0.86 h
[3]
  total protein half-life in vivo: 5.53 ± 0.73 h
[4]
  total protein half-life in vivo: 4.18 ± 0.28 h
[5]
  total protein half-life in vivo: 3.162 ± 0.023 h
[6]
  total protein half-life in vivo: 5.88 ± 0.24 h
[7]
  total protein half-life in vivo: 10.8 ± 0.43 h
[8]
  total protein half-life in vivo: 4.39 ± 0.4 h
[9]
  total protein half-life in vivo: 6.44 ± 0.27 h
[10]
  total protein half-life in vivo: 5.87 ± 0.12 h
[11]
  total protein half-life in vivo: 11.2 ± 1.5 h

## MRFCLILITALLLAGCSHHKAPPPNARLSDSITVIAGLNDQLQSWHGTPYRYGGMTRRGVDCSGFVVVTMRDRFDLQLPRETKQQASIGTQIDKDELLPGDLVFFKTGSGQNGLHVGIYDTNNQFIHASTSKGVMRSSLDNVYWQKNFWQARRI
[12]
  total protein half-life in vivo: 1.22 h
[3]
  total protein half-life in vivo: 0.828 h
[4]
  total protein half-life in vivo: 1.61 ± 0.18 h
[5]
  total protein half-life in vivo: 0.468 ± 0.23 h
[6]
  total protein half-life in vivo: 1.4 h
[7]
  total protein half-life in vivo: > 16 h
[9]
  total protein half-life in vivo: 4.32 h
[10]
  total protein half-life in vivo: 2.28 h
[11]
  total protein half-life in vivo: 4.21 ± 0.75 h

## MTRLASRFGAANLIRRDRPLTREELFRVVPSVFSEDKHESRSERYTYIPTISLLDSLQREGFQPFFACQTRVRDPGRREHTKHMLRLRREGQITGKQVPEIILLNSHDGTSSYQMLPGLFRAVCQNGLVCGESFGEVRVPHKGDVVSQVIEGAYEVLGIFDRVEEKRDAMQSLLLPPPAQQALAKAALTYRFGEDHQPVTESQILSPRRWQDESNDLWTTYQRIQENLIKGGLSGRNAKGGRSHTRAVRGIDGDVKLNRALWVMAEALLTQLQ
[1]
  total protein half-life in vivo: 5.7 ± 0.74 h
[6]
  total protein half-life in vivo: 3.1 h
[8]
  total protein half-life in vivo: 4.67 h
[10]
  total protein half-life in vivo: 3.42 h

## MKLTIIRLEKFSDQDRIDLQKIWPEYSPSSLQVDDNHRIYAARFNERLLAAVRVTLSGTEGALDSLRVREVTRRRGVGQYLLEEVLRNNPGVSCWWMADAGVEDRGVMTAFMQALGFTAQQGGWEKC
[1]
  total protein half-life in vivo: 4.23 ± 0.29 h
[12]
  total protein half-life in vivo: 3.9 ± 0.53 h
[2]
  total protein half-life in vivo: 5.19 h
[4]
  total protein half-life in vivo: 3.46 ± 0.21 h
[6]
  total protein half-life in vivo: 6.2 ± 1.2 h
[7]
  total protein half-life in vivo: 11.91 ± 0.065 h
[8]
  total protein half-life in vivo: 3.31 h
[9]
  total protein half-life in vivo: 6.11 ± 1.4 h
[10]
  total protein half-life in vivo: 5.99 ± 0.11 h
[11]
  total protein half-life in vivo: 12.9 ± 2.6 h

## MIRKSATGVIVALAVIWGGGTWYTGTQIQPGVEKFIKDFNDAKKKGEHAYDMTLSYQNFDKGFFNSRFQMQMTFDNGAPDLNIKPGQKVVFDVDVEHGPLPITMLMHGNVIPALAAAKVNLVNNELTQPLFIAAKNKSPVEATLRFAFGGSFSTTLDVAPAEYGKFSFGEGQFTFNGDGSSLSNLDIEGKVEDIVLQLSPMNKVTAKSFTIDSLARLEEKKFPVGESESKFNQINIINHGEDVAQIDAFVAKTRLDRVKDKDYINVNLTYELDKLTKGNQQLGSGEWSLIAESIDPSAVRQFIIQYNIAMQKQLAAHPELANDEVALQEVNAALFKEYLPLLQKSEPTIKQPVRWKNALGELNANLDISIADPAKSSSSTNKDIKSLNFDVKLPLNVVTETAKQLNLSEGMDAEKAQKQADKQISGMMTLGQMFQLITIDNNTASLQLRYTPGKVVFNGQEMSEEEFMSRAGRFVH
[2]
  total protein half-life in vivo: 5.74 h
[3]
  total protein half-life in vivo: 6.55 h
[5]
  total protein half-life in vivo: 2.57 h
[8]
  total protein half-life in vivo: 6.18 h
[10]
  total protein half-life in vivo: 5.4 h

## MNHSETITIECTINGMPFQLHAAPGTPLSELLREQGLLSVKQGCCVGECGACTVLVDGTAIDSCLYLAAWAEGKEIRTLEGEAKGGKLSHVQQAYAKSGAVQCGFCTPGLIMATTAMLAKPREKPLTITEIRRGLAGNLCRCTGYQMIVNTVLDCEKTK
[1]
  total protein half-life in vivo: 4.15 h
[2]
  total protein half-life in vivo: 1.29 h
[4]
  total protein half-life in vivo: 1.2 h
[5]
  total protein half-life in vivo: 1.46 ± 0.069 h
[6]
  total protein half-life in vivo: 2.29 ± 0.2 h
[7]
  total protein half-life in vivo: 3.5 ± 0.34 h
[11]
  total protein half-life in vivo: 3.76 h

## MDMHSGTFNPQDFAWQGLTLTPAAAIHIRELVAKQPGMVGVRLGVKQTGCAGFGYVLDSVSEPDKDDLLFEHDGAKLFVPLQAMPFIDGTEVDFVREGLNQIFKFHNPKAQNECGCGESFGV
[1]
  total protein half-life in vivo: 4.64 ± 0.11 h
[12]
  total protein half-life in vivo: 2.79 h
[3]
  total protein half-life in vivo: 3.64 h
[4]
  total protein half-life in vivo: 2.14 h
[5]
  total protein half-life in vivo: 1.94 ± 0.049 h
[6]
  total protein half-life in vivo: 3.99 ± 0.5 h
[7]
  total protein half-life in vivo: 4.5 h
[8]
  total protein half-life in vivo: 1.86 ± 0.16 h
[9]
  total protein half-life in vivo: 2.58 h
[10]
  total protein half-life in vivo: 2.69 h
[11]
  total protein half-life in vivo: 4.79 ± 0.6 h
